Data published in US20240034813A1 (Janssen / Centocor, published 2024).

Columns and labels:
[1] = molecular target: T1, recombinant cMet/HGFR with c-terminal His-tag, Cy5-labeled (UniProt P08581 25-932, limits assumed, Cy5 label (reacted with Cy5 Mono NHS Ester; sites not stated)); assay: competitive TR-FRET (Eu-amivantamab/Cy5-c-MET), EC50 ratio vs Reference Material; Ex. 11 drug product, 3 months at 25 C
T1 construct: Commercial protein; also called Cy5-c-MET; Cy5-labeled c-MET antigen; not shown: C-terminal His-tag
Text: (§1) In this procedure, varying concentrations of unlabeled bispecific EGFR-cMet antibody sample compete with donor fluorophore (Europium (Eu) chelate) labeled bispecific EGFR-cMet antibody for binding to an acceptor fluorophore (Cy5)-labeled c-MET antigen. Excitation of the donor fluorophore results in a transfer of energy to the bound acceptor fluorophore (FRET process). The resultant FRET is detected by emission of light at 665 nm using a microplate reader capable of measuring time-resolved fluorescence. Sample dose response curves are compared to the Reference Material (RM).
(§2) c-MET Binding Materials and Methods. Certified commercial cMet, a recombinant cMet/HGFR with c-terminal His-tag is reacted with certified commercial Cy5 Mono NHS Ester to produce Cy5-labeled c-MET. Validated bispecific EGFR-cMet antibody is reacted with certified commercial Europium (Eu) chelate to produce Eu labeled bispecific EGFR-cMet antibody. […] Fluorescence is then measured by spectrophotometry at 665 nm, plotted against antibody concentration and analyzed by a four-parameter logistic model. The antibody concentration required to obtain half of the maximum fluorescence response (EC50) is determined for RM, assay control and samples. The potencies of assay control and samples are calculated based on the ratio of the sample (or control) and RM EC50 values and reported as a percentage activity relative to the RM.

[2] = molecular target: T2, recombinant human EGFR/ErbB1/HER1 with C-terminal His tag, Cy5-labeled (human, UniProt P00533 25-645, Cy5 label (reacted with Cy5 Mono NHS Ester; sites not stated)); assay: competitive TR-FRET (Eu-amivantamab/Cy5-EGFR), EC50 ratio vs Reference Material; Ex. 11 drug product, 0 months, 5 C table
T2 construct: Commercial protein; also called Cy5-EGFR; Cy5-labeled EGFR antigen; not shown: C-terminal His tag
Text: as §1, with “EGFR” for “c-MET”, “RM.” for “Reference Material (RM).”
as §2, with “EGFR” for “c-MET”, “EGFR,” for “cMet,”, “human EGFR/ErbB1/HER1” for “cMet/HGFR”, “C-terminal His tag” for “c-terminal His-tag”, “EGFR.” for “c-MET.”, “Eu-labeled” for “Eu labeled”

[3] = molecular target: T2, recombinant human EGFR/ErbB1/HER1 with …; assay: competitive TR-FRET (Eu-amivantamab/Cy5-EGFR), EC50 ratio vs Reference Material; Ex. 12 drug product with rHuPH20, 1 month at 40 C
Text: as §1, with “EGFR” for “c-MET”, “RM.” for “Reference Material (RM).”
as §2, with “EGFR” for “c-MET”, “EGFR,” for “cMet,”, “human EGFR/ErbB1/HER1” for “cMet/HGFR”, “C-terminal His tag” for “c-terminal His-tag”, “EGFR.” for “c-MET.”, “Eu-labeled” for “Eu labeled”

[4] = molecular target: T1, recombinant cMet/HGFR with c-terminal …; assay: competitive TR-FRET (Eu-amivantamab/Cy5-c-MET), EC50 ratio vs Reference Material; Ex. 2 Formulation 1 (10 mM histidine), T0, 5 C table
Text: as §1, §2

[5] = molecular target: T2, recombinant human EGFR/ErbB1/HER1 with …; assay: competitive TR-FRET (Eu-amivantamab/Cy5-EGFR), EC50 ratio vs Reference Material; Ex. 12 drug product with rHuPH20, 0 months, 40 C table
Text: as §1, with “EGFR” for “c-MET”, “RM.” for “Reference Material (RM).”
as §2, with “EGFR” for “c-MET”, “EGFR,” for “cMet,”, “human EGFR/ErbB1/HER1” for “cMet/HGFR”, “C-terminal His tag” for “c-terminal His-tag”, “EGFR.” for “c-MET.”, “Eu-labeled” for “Eu labeled”

[6] = molecular target: T1, recombinant cMet/HGFR with c-terminal …; assay: competitive TR-FRET (Eu-amivantamab/Cy5-c-MET), EC50 ratio vs Reference Material; Ex. 2 Formulation 2 (50 mM histidine), 3 months at 25 C
Text: as §1, §2

B1: amivantamab (bispecific antibody, human IgG1, kappa)
heavy 1: not shown
light 1: not shown
heavy 2: not shown
light 2: DIQMTQSPSSVSASVGDRVTITCRASQGISNWLAWFQHKPGKAPKLLIYAASSLLSGVPSRFSGSGSGTDFTLTISSLQPEDFATYYCQQANSFPITFGQGTRLEIKRTVAAPSVFIFPPSDEQLKSGTASVVCLLNNFYPREAKVQWKVDNALQSGNSQESVTEQDSKDSTYSLSSTLTLSKADYEKHKVYACEVTHQGLSSPVTKSFNRGEC
notes: The samples tested were high concentration (160 mg/mL) formulations, fresh or stored or stressed; also called JNJ-61186372; bispecific EGFR-cMet antibody
cMET Binding activity relative to Reference Material (%) [1]: 94% | EGFR Binding activity relative to Reference Material (%) [2]: 89% | EGFR Binding activity relative to Reference Material (%) [3]: 41% | cMET Binding % activity relative to RM [4]: 87% | EGFR Binding activity relative to Reference Material (%) [5]: 92% | cMET Binding % activity relative to RM [6]: 89%
